Experimental data reported in US8791061B2, “Peptides for treating and preventing immune-related disorders, including treating and preventing infection by modulating innate immunity” (Soligenix, Inc., priority 2005, dated 2014).
Entries after “also recorded” stand apart in the source; their conditions may differ. Where no end group is shown, it is not given here. [ ]: non-standard residue; d: D form.

Legend:
DPPIV = target: T1, DPPIV (Mus musculus, UniProt P28843); assay: Plasma DPPIV activity assay with mouse blood; type: biochemical; conditions: peptide 0.82 mM in mouse blood, 2 h at 37° C.; relative to saline control set to 100%
T1 construct: The plasma was transferred to a 96-well assay plate for the DPPIV assay; from tissue; host or cells: pooled heparinized whole blood of ICR mice; plasma isolated after incubation
Protocol: Mouse blood was obtained by cardiac puncture from ICR mice and collected in heparinized blood collection tubes. Blood from several mice was pooled and aliquoted into […]. The peptide was dissolved in acetate buffered saline, pH 5.5, to a concentration of 9 mM. Of this stock solution 30 μL were added to 300 μL of blood and mixed by resuspension (concentration in blood 0.82 mM). For the control, 30 μL of blank acetate buffered saline was added to 300 μL of blood. Each peptide group was prepared in triplicate, whereas the control was prepared in six replicates. The samples were incubated at 37° C. in closed microtubes for two hours. After incubation the plasma was isolated from the samples by centrifugation at 4000 rcf. The plasma was transferred to a 96-well assay plate for the DPPIV assay. The assay was started by adding 5 μL of the DPPIV substrate gly-pro-p-nitroanilide (16 mM in de-ionized water) to 95 μl of plasma (concentration in plasma 0.8 mM) and the increase in UV absorbance (405 nm) was monitored over a 20 min time period. The rate of the production of p-nitroaniline by enzymatic cleavage of gly-pro-p-nitroanilide was taken as the activity of DPPIV (Durinx C et al., (2001) “Reference values for plasma dipeptidyl-peptidase IV activity and their association with other laboratory parameters”. Clin Chem Lab Med. 39(2):155-9.)
The effect of the peptides on the activity of DPPIV was observed. Results are presented as normalized, averaged % activity relative to saline control (set to 100%). Anything less than 100% activity represents a reduction in DPPIV activity.
In one aspect of the invention, a reduction by of DPPIV activity by about, or in one embodiment, at least, 25% (i.e. to about 75%+/−5%) was deemed to be active. A person skilled in the art would appreciate that the desired level of activity may vary depending on the use of the peptides.

S. aureus 25923 [1] = assay: In vivo protection, mice infected IP with S. aureus, peptide after infection; conditions: peptide IP 4 hours after infection, 9-24 mg/kg depending on peptide, 24 hours post-infection, vs control
Protocol: Mice were infected with S. aureus 25923 via intraperitoneal (IP) injection. Four hours later, the peptide of SEQ ID NOs:1, 4, 5, 6, 45, and 47 were administered at 12 mg/kg and 24 mg/kg for SEQ. ID. NO. 1 (FIGS. 2A and 2B), 9.6 mg/kg for SEQ. ID. NO. 5 (FIG. 2C), 13 mg/kg for SEQ. ID. NO. 47 (FIG. 2D), 12 mg/kg for SEQ. ID. NO. 4 (FIG. 2E), 9 mg/kg for SEQ. ID. NO. 6 (FIG. 2F), and 13 mg/kg for SEQ. ID. NO. 45 (FIG. 2G), via IP injection. Twenty-four hours post-infection, surviving animals were sacrificed, and intraperitoneal lavage fluid was plated to determine residual bacterial counts (# colony forming units per ml (CFU/ml)) in the presence and absence of peptide treatment.
Dead animals were assigned the highest bacterial count of any animal in the study.

S. aureus 25923 [2] = assay: Non-antimicrobial activity, WST-1 colorimetric bacterial viability assay; type: cell-based; conditions: peptide 200 μM, 2 hours growth, compared with erythromycin 120 μg/ml
Protocol: Bacteria (S. aureus 25923) were seeded into wells containing peptide (200 μM), vehicle (Tris), or antibiotic (erythromycin; 120 μg/ml). The bacteria were allowed to grow for 2 hours. Thereafter, bacterial viability was determined utilizing a WST-1 colorimetric viability assay (catalogue number 1 644 807; Roche Diagnostics). DMEM and DMEM+WST-1 were included as background controls.

T1 sequence (P28843 37-760 limits assumed): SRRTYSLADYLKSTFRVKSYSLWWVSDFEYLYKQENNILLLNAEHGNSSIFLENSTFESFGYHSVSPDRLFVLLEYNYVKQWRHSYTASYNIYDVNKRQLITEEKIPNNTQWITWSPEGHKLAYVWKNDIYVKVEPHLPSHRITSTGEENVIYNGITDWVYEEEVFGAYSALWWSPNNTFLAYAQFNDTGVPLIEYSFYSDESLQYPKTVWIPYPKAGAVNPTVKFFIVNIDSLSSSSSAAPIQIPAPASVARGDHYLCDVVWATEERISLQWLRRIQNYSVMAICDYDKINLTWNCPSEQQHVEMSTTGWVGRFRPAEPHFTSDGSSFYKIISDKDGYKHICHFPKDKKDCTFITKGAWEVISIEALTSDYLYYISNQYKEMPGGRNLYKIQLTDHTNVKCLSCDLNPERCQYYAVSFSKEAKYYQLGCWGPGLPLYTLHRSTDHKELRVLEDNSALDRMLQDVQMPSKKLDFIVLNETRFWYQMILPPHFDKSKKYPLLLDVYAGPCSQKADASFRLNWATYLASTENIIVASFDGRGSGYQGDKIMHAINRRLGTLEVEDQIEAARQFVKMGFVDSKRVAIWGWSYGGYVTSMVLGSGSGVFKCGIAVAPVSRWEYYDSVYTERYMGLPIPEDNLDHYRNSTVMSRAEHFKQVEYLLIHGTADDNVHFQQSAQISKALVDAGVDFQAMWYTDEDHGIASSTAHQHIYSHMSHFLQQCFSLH

| Substance | % DPPIV Activity (Saline) (DPPIV) | protection (residual bacterial counts CFU/ml in intraperitoneal lavage fluid) (S. aureus 25923 [1]) | antimicrobial activity (bacterial viability) (S. aureus 25923 [2]) |
| --- | --- | --- | --- |
| 27 (RVIPA-NH2) [compound 27] | 67% |  |  |
| 40 (ARVPA-NH2) [compound 40] | 68% |  |  |
| 75 (RIEPA; IMMUNOLOGICAL PEPTIDE) [compound 75] | 79% |  |  |
| 71 (RIWPA-NH2) [compound 71] | 78% |  |  |
| 30 (APVIR-NH2) [compound 30] | 36% |  |  |
| 45 (KPARVPS; IMMUNOLOGICAL PEPTIDE) [compound 45] | 27% | clearly demonstrated protection |  |
| 90 (RIVPA[dY]-NH2) [compound 90] | 59% |  |  |
| 37 (RLVPA-NH2) [compound 37] | 39% |  |  |
| 16 (RIPPA-NH2) [compound 16] | 66% |  |  |
| 47 (KPRAVP; IMMUNOLOGICAL PEPTIDE) [compound 47] | 52% | clearly demonstrated protection | lack of activity; also recorded: lacked antimicrobial activity |
| 13 (RKVPA-NH2) [compound 13] | 50% |  |  |
| 72 (RIVPW-NH2) [compound 72] | 71% |  |  |
| 88 (Gly-Val-Pro-NH2) [compound 88] | 69% |  |  |
| 86 (Lys-Val-Pro-NH2) [compound 86] | 49% |  |  |
| 29 (AVPIR-NH2) [compound 29] | 0% |  |  |
| 28 (RIIPA-NH2) [compound 28] | 20% |  |  |
| 77 (RIVPH-NH2) [compound 77] | 53% |  |  |

| Substance | % DPPIV Activity (Saline) (DPPIV) | protection (residual bacterial counts CFU/ml in intraperitoneal lavage fluid) (S. aureus 25923 [1]) | antimicrobial activity (bacterial viability) (S. aureus 25923 [2]) |
| --- | --- | --- | --- |
| 4 (SRIVP; IMMUNOLOGICAL PEPTIDE) [compound 4] | 64% | clearly demonstrated protection |  |
| 53 (GLKHPS-NH2) [compound 53] | 68% |  |  |
| 85 (Ser-Val-Pro-NH2) [compound 85] | 71% |  |  |
| 64 (RIVPPA-NH2) [compound 64] | 74% |  |  |
| 11 (RAVPA; IMMUNOLOGICAL PEPTIDE) [compound 11] | 39% |  |  |
| 19 (GGIVPA-NH2) [compound 19] | 70% |  |  |
| 78 (RSVPA-NH2) [compound 78] | 75% |  |  |
| 41 (IRVPA-NH2) [compound 41] | 49% |  |  |
| 82 (KPRP-NH2) [compound 82] | 52% |  |  |
| 21 (RGVPA-NH2) [compound 21] | 64% |  |  |
| 15 (RPVPA-NH2) [compound 15] | 27% |  |  |
| 22 (RIVPG-NH2) [compound 22] | 61% |  |  |
| 73 (SPVIRH-NH2) [compound 73] | 66% |  |  |
| 35 (RIVPF-NH2) [compound 35] | 77% |  |  |
| 87 (Arg-Arg-Pro-NH2) [compound 87] | 72% |  |  |
| 62 ([code r][code r]VP-NH2) [compound 62] | 51% |  |  |
